± gives the uncertainty stated by the source.
Assay: self-splicing fitness, log relative to wild type (ln ratio); higher = more splicing; Tetrahymena group I intron in knt gene, E. coli kanamycin selection, DiMSum; sequences stand for … in CUCUCU…GGAGGGAAAAGUUAUCAGGCAUGCACCUGGUAGCUAGUCUUUAAACCAAUAGAUUGCAUCGGUUUAAAAGGCAAGACCGUCAAAUUGCGGGAAAGGGGUCAACAGCCGUUCAGUACCAAGUCUCAGGGGAAACUUUGAGAUGGCCUUGCAAAGGGUAUGGUAAUAAGCUGACGGACAUGGUCCUAACCACGCAGCCAAGUCCUAAGUCAACAGAUCUUCUGUUGAUAUGGAUGCAGUUCACAGACUAAAUGUCGGUCGGGGAAGAUGUAUUCUUCUCAUAAGAUAUAGUCGGACCUCUCCUUAAUGGGAGCUAGCGGAUGAAGUGAUGCAACACUGGAGCCGCUGGGAACUAAUUUGUAUGCGAAAGUAUAUUGAUUAGUUUUGGAGUACUCGUGGUCG
Outline: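 Library with all eight P1ex-region intron nucleotides randomised, intron inside the knt kanamycin-resistance gene on pET-22b(+), in E. coli BL21(DE3). Cells grew overnight at 37°C or 30°C on LB agar with or without 25 μg/mL kanamycin (plus 100 μg/mL carbenicillin, 50 μM IPTG, 0.2% rhamnose), in six replicate transformations. Pooled colonies were amplicon-sequenced on Illumina HiSeq 2500. DiMSum fitness is the error-weighted combination of wild-type-normalised replicate fold changes, kanamycin versus none.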

Sequence	self-splicing fitness (ln) (30 °C)	self-splicing fitness (ln) (37 °C)
UACGAGCAAUAUUACGUCGC	-3.3 ± 0.47	-2.49 ± 0.42
UCAUAGCAAUAUUACGGACA	-2.48 ± 0.21	-0.42 ± 0.15
UAAAAGCAAUAUUACGGGCU	-2.79 ± 0.23	-2 ± 0.29
CCAUAGCAAUAUUACGGCGG	-1.95 ± 0.13	-1.6 ± 0.18
CUUAAGCAAUAUUACGCGAC	-1.83 ± 0.16	-0.508 ± 0.23
UCUAAGCAAUAUUACGAAGA	-1.29 ± 0.14	-0.678 ± 0.13
GGCUAGCAAUAUUACGGGAU	-1.89 ± 0.089	-1.03 ± 0.11
CCAUAGCAAUAUUACGGUGA	-1.18 ± 0.11	-1.74 ± 0.12
CCACAGCAAUAUUACGCGGA	-3.84 ± 0.21	-1.01 ± 0.11
UUCUAGCAAUAUUACGCGCG	-2.24 ± 0.32	-1.05 ± 0.18
CUGCAGCAAUAUUACGAGUC	-3.68 ± 0.23	-2.59 ± 0.41
GGCUAGCAAUAUUACGACCA	-1.49 ± 0.3	-1.43 ± 0.31
AGGAAGCAAUAUUACGAGGA	-2.39 ± 0.29	-2.32 ± 0.22
AGUAAGCAAUAUUACGGGGC	-3.29 ± 0.36	-2.29 ± 0.34
UGAGAGCAAUAUUACGCCCA	-1.49 ± 0.26	–
UGCUAGCAAUAUUACGUAUG	-1.1 ± 0.067	-0.309 ± 0.089
CCGCAGCAAUAUUACGCGUA	-2.58 ± 0.16	-0.978 ± 0.11
CUUAAGCAAUAUUACGCCUC	-1.85 ± 0.22	–
GGUCAGCAAUAUUACGUAGA	-0.689 ± 0.081	-0.164 ± 0.096
GAGUAGCAAUAUUACGGAGA	-2.29 ± 0.37	-2.12 ± 0.29

Sequence	self-splicing fitness (ln) (30 °C)	self-splicing fitness (ln) (37 °C)
AUAUAGCAAUAUUACGGCAG	-1.74 ± 0.16	-1.79 ± 0.19
UGGUAGCAAUAUUACGCCAA	-1.77 ± 0.15	-0.723 ± 0.12
AUGAAGCAAUAUUACGCCCA	0.226 ± 0.22	0.0745 ± 0.25
CUCGAGCAAUAUUACGCUGG	-4.31 ± 0.24	-3.22 ± 0.22
GUGAAGCAAUAUUACGACUC	0.243 ± 0.26	-0.398 ± 0.28
CUGCAGCAAUAUUACGAGAC	-2.19 ± 0.16	-1.31 ± 0.16
CAAUAGCAAUAUUACGAUGC	-3.6 ± 0.24	-2.23 ± 0.23
UUUUAGCAAUAUUACGUUCG	-0.683 ± 0.11	-1.34 ± 0.12
UCCGAGCAAUAUUACGUCCU	-2.6 ± 0.28	–
GAUCAGCAAUAUUACGACUA	-0.353 ± 0.4	-0.914 ± 0.2
AUACAGCAAUAUUACGGUAC	-4.13 ± 0.3	-2.2 ± 0.18
CCCUAGCAAUAUUACGGGGG	-3.85 ± 0.24	-3.36 ± 0.3
UGCCAGCAAUAUUACGAUCG	-0.0468 ± 0.067	0.0388 ± 0.079
AAUGAGCAAUAUUACGUGUG	-4.35 ± 0.3	-1.65 ± 0.17
AUGCAGCAAUAUUACGACUG	-3.44 ± 0.23	-2.8 ± 0.31
CUAGAGCAAUAUUACGCGCC	-2.12 ± 0.38	–
CCGCAGCAAUAUUACGGAAC	-3.52 ± 0.41	-3.41 ± 0.29
ACUGAGCAAUAUUACGAUUG	–	-3.25 ± 0.37
ACCAAGCAAUAUUACGCCUG	-2.05 ± 0.18	-2.31 ± 0.25

Reference: the supplement of paper PMC7877785
